26 molecules from US20260242839A1, “GLYCOSIDE PRODUCT BIOSYNTHESIS AND RECOVERY” (Manus Bio Inc., priority 2023, published 2026) can be followed below.

In this experiment the test system is steviol glycoside. The experiment is described as follows: steviol glycoside bioconversion by E. coli expressing individual mutations of UGT SEQ ID NO: 14. Format: cell-based. The following applies: fold improvement of % conversion vs parent UGT SEQ ID NO: 14; stevia leaf extract and glucose fed; 37° C., 48 hr. As for the experimental part:
Fold improvement is with respect to % steviol glycoside conversion of the parent UGT enzyme of SEQ ID NO: 14. The UGT enzyme of SEQ ID NO: 15 has the following mutations from SEQ ID NO: 14: ins_A2_T3_RR, H59P, A238E, L417F. Stevia leaf extract and glucose were fed to the bioconversion strains. Bioconversion took place at 37° C. for 48 hr. Data were quantified by reverse phase LC DAD to quantify conversion of steviol glycosides.
Fold improvement (FI) is with respect to % steviol glycoside conversion.

Positions count from the first letter of the chain named. Names may count otherwise.

B1: V26I: mutation to UGT enzyme of SEQ ID NO: 14 (protein)
chain: MATKNSSGMSLAERFWLTLSRSSLVIGRSCVEFEPETVPLLSTLRGKPITFLGLMPPLHEGRREDGEDATVRWLDAQPAKSVVYVALGSEVPLGVEKVHELALGLELAGTRFLWALRKPTGVSDADLLPAGFEERTRGRGVVATRWVPQMSILAHAAVGAFLTHCGWNSTIEGLMFGHPLIMLPITGDQGPNARLIEAKNAGLQVARNDGDGSFDREGVAAAIRAVAVEEESSKVFQAKAKKLQEIVADMACHERYIDGFIQQLRSYKDDSGYSSSYAAAAGMHVVICPWLAFGHLLPCLDLAQRLASRGHRVSFVSTPRNISRLPPVRPALAPLVAFVALPLPRVEGLPDGAESTNDVPHDRPDMVELHRRAFDGLAAPFSEFLGTACADWVIVDSFHHWAAAAALEHKVPCAMMLLGSAEMIASIADERLEHAETESPAAAGQGRPAAAPTFEVARMKLIR
Regarding B1, the “FI %Stevioside→rebE” value turned out to be 1.18 and the “FI %rebA→rebD” value is on record as 1.16.

B2: T453M: mutation to UGT enzyme of SEQ ID NO: 14 (protein)
chain: B1 chain with I26V, T453M
As to B2, the “FI %Stevioside→rebE” value is recorded as 1.7 and the “FI %rebA→rebD” value was determined as 1.5.

B3: E254D: mutation to UGT enzyme of SEQ ID NO: 14 (protein)
chain: B1 chain with I26V, E254D
Turning to B3, the “FI %Stevioside→rebE” value turned out to be 1.7 and the “FI %rebA→rebD” value turned out to be 1.5.

B4: S29T: mutation to UGT enzyme of SEQ ID NO: 14 (protein)
chain: B1 chain with I26V, S29T
Turning to B4, the “FI %Stevioside→rebE” value worked out at 1.05 and the “FI %rebA→rebD” value is given as 1.00.

B5: T43D: mutation to UGT enzyme of SEQ ID NO: 14 (protein)
chain: B1 chain with I26V, T43D
B5: the “FI %Stevioside→rebE” value is recorded as 1.29 and the “FI %rebA→rebD” value was 1.08.

B6: T3R: mutation to UGT enzyme of SEQ ID NO: 14 (protein)
chain: B1 chain with T3R, I26V
For the molecule B6, the “FI %Stevioside→rebE” value is given as 1.9 and the “FI %rebA→rebD” value amounted to 1.6.

B7: A238E: mutation to UGT enzyme of SEQ ID NO: 14 (protein)
chain: B1 chain with I26V, A238E
As to B7, the “FI %Stevioside→rebE” value worked out at 1.9 and the “FI %rebA→rebD” value is reported as 1.6.

B8: L203I: mutation to UGT enzyme of SEQ ID NO: 14 (protein)
chain: B1 chain with I26V, L203I
Regarding B8, the “FI %Stevioside→rebE” value was found to be 1.6 and the “FI %rebA→rebD” value is recorded as 1.5.

B9: C299A: mutation to UGT enzyme of SEQ ID NO: 14 (protein)
chain: B1 chain with I26V, C299A
On to B9, for which the “FI %Stevioside→rebE” value turned out to be 0.76 and the “FI %rebA→rebD” value turned out to be 1.03.

B10: Q262E: mutation to UGT enzyme of SEQ ID NO: 14 (protein)
chain: B1 chain with I26V, Q262E
As to B10, the “FI %Stevioside→rebE” value stood at 2.0 and the “FI %rebA→rebD” value amounted to 1.7.

B11: I152L: mutation to UGT enzyme of SEQ ID NO: 14 (protein)
chain: B1 chain with I26V, I152L
Turning to B11, the “FI %Stevioside→rebE” value is given as 1.09 and the “FI %rebA→rebD” value turned out to be 1.15.

B12: Y267H: mutation to UGT enzyme of SEQ ID NO: 14 (protein)
chain: B1 chain with I26V, Y267H
Consider B12, for which the “FI %Stevioside→rebE” value was 1.8 and the “FI %rebA→rebD” value amounted to 1.6.

B13: D269R: mutation to UGT enzyme of SEQ ID NO: 14 (protein)
chain: B1 chain with I26V, D269R
For B13, the “FI %Stevioside→rebE” value is 2.0 and the “FI %rebA→rebD” value is on record as 1.7.

B14: S308Q: mutation to UGT enzyme of SEQ ID NO: 14 (protein)
chain: B1 chain with I26V, S308Q
As to B14, the “FI %Stevioside→rebE” value is 1.6 and the “FI %rebA→rebD” value was 1.6.

B15: V31P: mutation to UGT enzyme of SEQ ID NO: 14 (protein)
chain: B1 chain with I26V, V31P
With B15, the “FI %Stevioside→rebE” value is listed as 1.22 and the “FI %rebA→rebD” value is 1.08.

B16: P39T: mutation to UGT enzyme of SEQ ID NO: 14 (protein)
chain: B1 chain with I26V, P39T
As to B16, the “FI %Stevioside→rebE” value is listed as 1.31 and the “FI %rebA→rebD” value turned out to be 0.98.

B17: V95Q: mutation to UGT enzyme of SEQ ID NO: 14 (protein)
chain: B1 chain with I26V, V95Q
B17: the “FI %Stevioside→rebE” value turned out to be 1.8 and the “FI %rebA→rebD” value was 1.6.

B18: R145S: mutation to UGT enzyme of SEQ ID NO: 14 (protein)
chain: B1 chain with I26V, R145S
Take B18: the “FI %Stevioside→rebE” value came out at 1.06 and the “FI %rebA→rebD” value is reported as 1.14.

B19: S151R: mutation to UGT enzyme of SEQ ID NO: 14 (protein)
chain: B1 chain with I26V, S151R
Consider B19, for which the “FI %Stevioside→rebE” value amounted to 1.6 and the “FI %rebA→rebD” value came out at 1.5.

B20: L417M: mutation to UGT enzyme of SEQ ID NO: 14 (protein)
chain: B1 chain with I26V, L417M
On to B20, for which the “FI %Stevioside→rebE” value came out at 1.02 and the “FI %rebA→rebD” value was determined as 1.02.

B21: L417F: mutation to UGT enzyme of SEQ ID NO: 14 (protein)
chain: B1 chain with I26V, L417F
In the case of B21, the “FI %Stevioside→rebE” value was 1.34 and the “FI %rebA→rebD” value came out at 1.24.

B22: G94R: mutation to UGT enzyme of SEQ ID NO: 14 (protein)
chain: B1 chain with I26V, G94R
On to B22, for which the “FI %Stevioside→rebE” value is given as 1.12 and the “FI %rebA→rebD” value is given as 1.13.

B23: S123D: mutation to UGT enzyme of SEQ ID NO: 14 (protein)
chain: B1 chain with I26V, S123D
Consider B23, for which the “FI %Stevioside→rebE” value was determined as 1.7 and the “FI %rebA→rebD” value was 1.5.

B24: H99T: mutation to UGT enzyme of SEQ ID NO: 14 (protein)
chain: B1 chain with I26V, H99T
On to B24, for which the “FI %Stevioside→rebE” value came to 0.76 and the “FI %rebA→rebD” value came to 1.04.

B25: L11I: mutation to UGT enzyme of SEQ ID NO: 14 (protein)
chain: B1 chain with L11I, I26V
As for B25, the “FI %Stevioside→rebE” value is on record as 1.39 and the “FI %rebA→rebD” value is listed as 1.16.

B26: ins_A2_T3_R: SEQ ID NO: 14 with insertion of Arg between A2 and T3 (protein)
chain: MARTKNSSGMSLAERFWLTLSRSSLVVGRSCVEFEPETVPLLSTLRGKPITFLGLMPPLHEGRREDGEDATVRWLDAQPAKSVVYVALGSEVPLGVEKVHELALGLELAGTRFLWALRKPTGVSDADLLPAGFEERTRGRGVVATRWVPQMSILAHAAVGAFLTHCGWNSTIEGLMFGHPLIMLPITGDQGPNARLIEAKNAGLQVARNDGDGSFDREGVAAAIRAVAVEEESSKVFQAKAKKLQEIVADMACHERYIDGFIQQLRSYKDDSGYSSSYAAAAGMHVVICPWLAFGHLLPCLDLAQRLASRGHRVSFVSTPRNISRLPPVRPALAPLVAFVALPLPRVEGLPDGAESTNDVPHDRPDMVELHRRAFDGLAAPFSEFLGTACADWVIVDSFHHWAAAAALEHKVPCAMMLLGSAEMIASIADERLEHAETESPAAAGQGRPAAAPTFEVARMKLIR
As for B26, the “FI %Stevioside→rebE” value stood at 1.9 and the “FI %rebA→rebD” value turned out to be 1.6.
